From US20260159594A1 (UNIVERSITY OF TOKYO, published 2026)

Biological target: T1, human IL13RA2 (human, UniProt Q14627 27-380)
T1 construct: also called interleukin 13 receptor subunit alpha 2; 13R2
T1 sequence: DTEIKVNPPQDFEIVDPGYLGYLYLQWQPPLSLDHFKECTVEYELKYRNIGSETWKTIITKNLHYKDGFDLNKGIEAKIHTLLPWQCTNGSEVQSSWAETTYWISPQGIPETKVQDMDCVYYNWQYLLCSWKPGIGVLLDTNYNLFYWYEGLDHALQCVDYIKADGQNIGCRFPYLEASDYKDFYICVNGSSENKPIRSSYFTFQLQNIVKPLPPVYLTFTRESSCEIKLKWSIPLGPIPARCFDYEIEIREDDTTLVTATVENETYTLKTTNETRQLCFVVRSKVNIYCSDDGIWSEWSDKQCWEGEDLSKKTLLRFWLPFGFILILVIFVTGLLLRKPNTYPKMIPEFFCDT
Assay: flow cytometry on U87(+), H1299(+) and RPMI7951 cells; Alexa Fluor 488-labeled anti-mouse IgG secondary antibody
Experimental: Flow cytometry analysis was carried out using LSRFortessa (BD Biosciences).

B1: 4E6 antibody (antibody, V domains shown)
VH: EVKLEESGPGLVAPSQSLSIACTVSGFSLTRHGIHWVRQPPGKNLEWLGVIWAGGSTNYNSALMSRLSIIKDNSKSQVFLKMNSLQTVDTAMYYCARDHFDSFDYWGQGTTLTVSS
VL: DIVLTQTPAIMSASLGERVTMTCTASSSVSSSYLHWYQQKPGSSPKLWIYSTSNLASGVPLRFSGSGSGTSYSLTISSMEAEDAATYYCHQYHRSPLTFGAGTKLELKR
notes: also called anti-IL13RA2 antibody; antibody produced by hybridoma NITE BP-03673
binding result: binds
